Source: a protein production outcome set (Wang et al. 2014)

assay: label from the status in PepcDB records

Protein production, not failed:
MASEHFDMWESRFSADGYLFGTAPNAFLASCHDLLPKQGRALAIADGEGRNGVFLAECGLSVLSVDFSPTAQAKAHKLAAERGVTIETRTADLLSWQWPGGFDVIAGIFFQFVEPEQRPQIFQQIRAALKPGALLLIEGYRPKQLAYKTGGPSRAENLYTRELLEQAFGDFDNLSIRERDSEIVEGAGHAGLSALIDLIGWKPKLEHHHHHH

Protein production, failed:
MASDINAKLRQKQYEAAVLEFAGDRKGYFVVASDDPQFASLLRQTLTKHLAIPGDAMSTVANPDHILRELKNVTMRRKTVLLFLERILEGRDTNLLVRQLKSAYPDLKIIVITGETERNRLVLLHEVGADNFITKPVSMNTLIEKMAFTIKPLGKLGQLIDQAREFVHQNLPEQGIKLCRQILELKPGSAAGYLVMGEAYQHLGKLDKARECYEEASRNAELYLEPLRRLADIHGEMGEPTEQLRYLERLDQLSPLNVERKVDMGAIHLELGNQEKADELFDTAVQQATREALSYIADISGRIAGIYNGRDPQRAEHFLRRALDAKGDMLDASDLDTFNRLGIALRRQGKWQEALTEYHKALRVAPEDENLFYNMGMACAEGRDFREARANMLKALTINPELPRRDPVMAYNIGLVFMRAGGREYAERCLNIALELDPGFTKAREALERLG
MASDREEFNLCGPTHLTTVDWGNEDHQRCVAACLVQGIYIVEQDRQLKREGTEALASPWWESFNFKLIRHLKDDADFSIFGGIFEYKSLQPDVVDSGVPRYVIAFRGTLTKADSITRDIELDIHIIRNGLHRTSRFEIAMQAVRSMADSVGASSFWLTGHSLGAAMALLAGKTMGKSGVYIKSLLFNPPYVSPPIERIANERVRHGIRFAGSLITAGLALSRTLKQTQQPQQQQLQLQNLTEDPLEALSSWLPNIHVNPGDHLCSEYIGFFEHRGNMEQIGYGAGIVERMAMQHSLGGLLMDAMGVSNAVEVEEPVHVIPSANLIVNKTISEDYKDAHGIHQWWRDDQDLVSHIYMYK
MASEWNVAAERHSALHYLYRLGDAVLIAVCGIAMGALYFHDGIRSAAPVNGFLTMLCALGALLIFPAFGIYESWRGRSRAVLGLRIAAAWTLVFISGLLGAFLIHQIGAVSRVWSMGWFIGTGVMLALSRVVMFRMLANVRQQGINAKRVLIFGYGPLGREMYDRVQHFRDAGYRVVGVYDEESDAIPYDVTPLRQIEEVSGFVRDHGVREIWLTLPMAACRDLSGVVRQFRNEMIDIRWVPDVSSVELLGHRFSEFMGLPVIDLNSPPVSGITGVVKASFDRVFSLGVLVCLSPLLLLIAAMVKLSSPGPVLFRQQRLGIDGQPFNVYKFRTMRQHQDGGGVTQAVRGDPRVTRVGAFLRRTSLDELPQFINVLRGEMSVVGPRPHAMEHNELYKELIDRYMLRHRVKPGITGWAQINGLRGQTDTVEKMRKRIEFDIYYIQHWSFQLDLRIILRTALHGWTGTTAY
MASFCNSWKRKHNEAIKLSEEIDGMILERSSLAETSSYARGHASYMRRKITILANGVQTLKNLLAESQGKSISAKEMSRCKDMVEDLRSKAYQMASALDMLKFSNIGSLLGQDDIMSRVIDMDNQEIVGFQRTTMKGKLKGVMHLKREALAMNMELGLQTRLIDRLDHHVDVSASDVEELQRSIDTGVCMTLLLSVVVVVFGLSEFVKFGRRRILG
MASFPHPGSVTVCEINRDLITAQNLSDERAQETYGKVLGMVFSPVSFDSTPSSLQENEGQENGDKASGESKGLVATLQMKVADSLKQILQPTDVTLLSEIDLQGVSWHQGKHIIAFISGANQVTIRDYEDKDEKEPCILTSDSQRNVKALEWRPNGGKSLSIACRGGICIWAASYPGNMALVRSGGSALRGSLSRGSGTRWILVDFLRCQNDEQISALSWSPCGRYLASASYDSSSFTIWDVSQGAGTPIRRGLGGISMLKWSPTGDYFFAARFDGTFCLWETNTWTSEPWSLSSGSGSVTGAIWDPEGRFILISFSKSSTLGSVHFSSKPPSLDAHLLPVELPEIASLTGCEGIEKIAWDASGERLAVSYKGGDENYKGLIAIYDTRRTPIVSASLVGFIRGPGENPKALSFSFHDKFKQGPLLSVCWSTGFCCTYPLIFRSHVLP
MASGKSIMGGLPPLKPGEKLPRLQTVIATSPENPAGDPNIRPQQAGEAAGKVIGGGLGVLLVTVCVLLLLGPVLWAPGWAGLRVARFLSGPWQPWLAGFAAFVAVAVLQTFLLIQRHPALRYPIVTLFSVLWVGGLWLEFNSPRHDWVTTAPTLQMPGPWSWALIISGSVVYAGIYLLALAPVGKSRWARRWQLLK
MASGLFENDGIKDNKARDFFYSHSSLIVFFLLLLGFGYYLGKLLFGGSSLEVYLDLRDKHERLQQEITELQSKNVRLQKRLFELKELRPRD
